Data: patent US20140323392A1

Tests used:
[1] = molecular target: HIV-1 HXB2 envelope glycoprotein gp41 (N-trimer of the prehairpin intermediate) (HIV-1 strain HXB2) (UniProt P04578); test: cell-based or functional assay
[2] = molecular target: HIV-1 JRFL envelope glycoprotein gp41 (N-trimer of the prehairpin intermediate) (HIV-1 strain JRFL); test: cell-based or functional assay

Row | Substance | IC50, HXB2 pseudovirion entry [1] [nM] | IC50, JRFL pseudovirion entry [2] [nM]
1 | C34 (from UniProt P04578 628-661) (peptide) | 1.4 | 13.4
2 | C34-PEG2-Chol (from UniProt P04578 628-661) (peptide) | 0.044 | 0.05
3 | C34-PEG11-Chol (from UniProt P04578 628-661) (peptide) | 0.021 | 0.024
4 | C34-PEG80-Chol (from UniProt P04578 628-661) (peptide) | 0.022 | 0.1
